Residue numbers refer to the chain shown, from its start. Numbers in names are those of the source. Each block holds one binder with its values, some of them ahead of it.
Biological target: T1, IL-22 RA1 extracellular domain (ECD) (UniProt Q8N6P7 16-228)
T1 construct: Coated on the ELISA plate; also called IL22 receptor; IL22R1A
T1 sequence (looked up): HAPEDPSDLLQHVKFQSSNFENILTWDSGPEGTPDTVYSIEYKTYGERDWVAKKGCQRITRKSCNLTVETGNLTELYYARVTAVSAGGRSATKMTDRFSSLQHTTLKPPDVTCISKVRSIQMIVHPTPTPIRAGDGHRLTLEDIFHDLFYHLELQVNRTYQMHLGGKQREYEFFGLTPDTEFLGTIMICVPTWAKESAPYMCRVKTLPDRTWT
Experiment: ELISA; 96-well plate coated with IL-22 RA1 ECD; varying concentrations of IL22-Fc added in duplicate; bound IL22-Fc detected with goat anti-human IgG-HRP and TMB; potency by parallel curve program relative to the reference standard
Conditions: both partners purified

fold change in binding against control IL22-Fc: ~2 fold
B1: enzymatically desialylated IL22-Fc (Fc fusion, UniProt Q9GZX6 34-179, looked up)
chain: APISSHCRLDKSNFQQPYITNRTFMLAKEASLADNNTDVRLIGEKLFHGVSMSERCYLMKQVLNFTLEEVLFPQSDRFQPYMQEVVPFLARLSNRLSTCHIEGDDLHIQRNVQKLKDTVKKLGESGEIKAIGELDLLFMSLRNACI
modifications: N-linked glycans with the sialic acids enzymatically removed
notes: IL22 cytokine of the IL22-Fc fusion UTTR1147A, same chain as m1; Same polypeptide as m1; differs only in the glycans; also called sialidase-treated IL22-Fc; source: IL22-Fc from cell culture fermentation, purified, then enzymatically desialylated

fold change in potency (binding ELISA) relative to wild type: 3.98 fold
B2: IL22-Fc N21Q point mutant (Fc fusion, UniProt Q9GZX6 34-179, looked up)
chain: B1 chain with N21Q
modifications: N-linked glycans; the glycosylation site at N21 knocked out
notes: IL22 cytokine of the IL22-Fc fusion UTTR1147A with N21Q; Parent is m1; source: 10 day CHO cell culture fermentations, SP Sepharose Fast Flow ion exchange chromatography
